Experimental data taken from patent US20050244864A1, “Development and use of fluorescent probes of unbound analytes” (priority 2004, published 2005).

B1: VQQ: probe L72V R106Q R126Q of rI-FABP (protein, UniProt P02693 2-132, looked up, variant L72V R106Q R126Q)
Fatty acid-binding protein, …: AFDGTWKVDRNENYEKFMEKMGINVVKRKLGAHDNLKLTITQEGNKFTVKESSNFRNIDVVFELGVDFAYSVADGTELTGTWTMEGNKLVGKFKRVDNGKELIAVQEISGNELIQTYTYEGVEAKQIFKKE
modifications: fluorescent label
notes: probe L72V R106Q R126Q of rI-FABP
B2: 47S1, L72A (protein, UniProt P02693 2-132, looked up, variant F47S L72A)
Fatty acid-binding protein, …: AFDGTWKVDRNENYEKFMEKMGINVVKRKLGAHDNLKLTITQEGNKSTVKESSNFRNIDVVFELGVDFAYSAADGTELTGTWTMEGNKLVGKFKRVDNGKELIAVREISGNELIQTYTYEGVEAKRIFKKE
modifications: acrylodan label
B3: 11I1, L72A (protein, UniProt P02693 2-132, looked up, variant N11I L72A)
Fatty acid-binding protein, …: AFDGTWKVDRIENYEKFMEKMGINVVKRKLGAHDNLKLTITQEGNKFTVKESSNFRNIDVVFELGVDFAYSAADGTELTGTWTMEGNKLVGKFKRVDNGKELIAVREISGNELIQTYTYEGVEAKRIFKKE
modifications: acrylodan label
B4: 47G1, L72A (protein, UniProt P02693 2-132, looked up, variant F47G L72A)
Fatty acid-binding protein, …: AFDGTWKVDRNENYEKFMEKMGINVVKRKLGAHDNLKLTITQEGNKGTVKESSNFRNIDVVFELGVDFAYSAADGTELTGTWTMEGNKLVGKFKRVDNGKELIAVREISGNELIQTYTYEGVEAKRIFKKE
modifications: acrylodan label
B5: 11S5, L72A (protein, UniProt P02693 2-132, looked up, variant N11S L72A)
Fatty acid-binding protein, …: AFDGTWKVDRSENYEKFMEKMGINVVKRKLGAHDNLKLTITQEGNKFTVKESSNFRNIDVVFELGVDFAYSAADGTELTGTWTMEGNKLVGKFKRVDNGKELIAVREISGNELIQTYTYEGVEAKRIFKKE
modifications: acrylodan label
B6: 11W1, L72A (protein, UniProt P02693 2-132, looked up, variant N11W L72A)
Fatty acid-binding protein, …: AFDGTWKVDRWENYEKFMEKMGINVVKRKLGAHDNLKLTITQEGNKFTVKESSNFRNIDVVFELGVDFAYSAADGTELTGTWTMEGNKLVGKFKRVDNGKELIAVREISGNELIQTYTYEGVEAKRIFKKE
modifications: acrylodan label
B7: 11F1, L72A (protein, UniProt P02693 2-132, looked up, variant N11F L72A)
Fatty acid-binding protein, …: AFDGTWKVDRFENYEKFMEKMGINVVKRKLGAHDNLKLTITQEGNKFTVKESSNFRNIDVVFELGVDFAYSAADGTELTGTWTMEGNKLVGKFKRVDNGKELIAVREISGNELIQTYTYEGVEAKRIFKKE
modifications: acrylodan label
B8: 14Y, 72A wt (protein, UniProt P02693 2-132, looked up, variant L72A)
Fatty acid-binding protein, …: AFDGTWKVDRNENYEKFMEKMGINVVKRKLGAHDNLKLTITQEGNKFTVKESSNFRNIDVVFELGVDFAYSAADGTELTGTWTMEGNKLVGKFKRVDNGKELIAVREISGNELIQTYTYEGVEAKRIFKKE
modifications: acrylodan label
B9: 47C3, L72A (protein, UniProt P02693 2-132, looked up, variant F47C L72A)
Fatty acid-binding protein, …: AFDGTWKVDRNENYEKFMEKMGINVVKRKLGAHDNLKLTITQEGNKCTVKESSNFRNIDVVFELGVDFAYSAADGTELTGTWTMEGNKLVGKFKRVDNGKELIAVREISGNELIQTYTYEGVEAKRIFKKE
modifications: acrylodan label
B10: 47H1, L72A (protein, UniProt P02693 2-132, looked up, variant F47H L72A)
Fatty acid-binding protein, …: AFDGTWKVDRNENYEKFMEKMGINVVKRKLGAHDNLKLTITQEGNKHTVKESSNFRNIDVVFELGVDFAYSAADGTELTGTWTMEGNKLVGKFKRVDNGKELIAVREISGNELIQTYTYEGVEAKRIFKKE
modifications: acrylodan label
B11: 11Q1, L72A (protein, UniProt P02693 2-132, looked up, variant N11Q L72A)
Fatty acid-binding protein, …: AFDGTWKVDRQENYEKFMEKMGINVVKRKLGAHDNLKLTITQEGNKFTVKESSNFRNIDVVFELGVDFAYSAADGTELTGTWTMEGNKLVGKFKRVDNGKELIAVREISGNELIQTYTYEGVEAKRIFKKE
modifications: acrylodan label
B12: 11D1, L72A (protein, UniProt P02693 2-132, looked up, variant N11D L72A)
Fatty acid-binding protein, …: AFDGTWKVDRDENYEKFMEKMGINVVKRKLGAHDNLKLTITQEGNKFTVKESSNFRNIDVVFELGVDFAYSAADGTELTGTWTMEGNKLVGKFKRVDNGKELIAVREISGNELIQTYTYEGVEAKRIFKKE
modifications: acrylodan label
B13: 47T1, L72A (protein, UniProt P02693 2-132, looked up, variant F47T L72A)
Fatty acid-binding protein, …: AFDGTWKVDRNENYEKFMEKMGINVVKRKLGAHDNLKLTITQEGNKTTVKESSNFRNIDVVFELGVDFAYSAADGTELTGTWTMEGNKLVGKFKRVDNGKELIAVREISGNELIQTYTYEGVEAKRIFKKE
modifications: acrylodan label
B14: 40F2, L72A (protein, UniProt P02693 2-132, looked up, variant I40F L72A)
Fatty acid-binding protein, …: AFDGTWKVDRNENYEKFMEKMGINVVKRKLGAHDNLKLTFTQEGNKFTVKESSNFRNIDVVFELGVDFAYSAADGTELTGTWTMEGNKLVGKFKRVDNGKELIAVREISGNELIQTYTYEGVEAKRIFKKE
modifications: acrylodan label
B15: 47M2, L72A (protein, UniProt P02693 2-132, looked up, variant F47M L72A)
Fatty acid-binding protein, …: AFDGTWKVDRNENYEKFMEKMGINVVKRKLGAHDNLKLTITQEGNKMTVKESSNFRNIDVVFELGVDFAYSAADGTELTGTWTMEGNKLVGKFKRVDNGKELIAVREISGNELIQTYTYEGVEAKRIFKKE
modifications: acrylodan label
B16: 40V1, L72A (protein, UniProt P02693 2-132, looked up, variant I40V L72A)
Fatty acid-binding protein, …: AFDGTWKVDRNENYEKFMEKMGINVVKRKLGAHDNLKLTVTQEGNKFTVKESSNFRNIDVVFELGVDFAYSAADGTELTGTWTMEGNKLVGKFKRVDNGKELIAVREISGNELIQTYTYEGVEAKRIFKKE
modifications: acrylodan label

How the values were obtained:
Type in all cases: binding
[1] = Probe fluorescence ratio response to palmitate:BSA complex, relative to ADIFAB2 (ΔR/ΔRAD2); conditions: for DR/DR PA: palmitate (PA), response relative to ADIFAB2
Procedure: (§1) The intensity ratio (“R” value) for a given probe is determined. The ratio is calculated using the following formula: R=Fλ1/Fλ2 wherein, Fλ1, is the measured fluorescence intensities (intensity of sample with probe present minus intensity of sample without probe present) at wavelength 1 and Fλ2 is the measured fluorescence intensities (intensity of sample with probe present minus intensity of sample without probe present) at wavelength 2. Then, for a given probe, ΔR, the difference in R value between the measurement in the presence of the analyte and in the absence of the analyte, is calculated as follows: ΔR=R+analyte−R0 The ΔR value for a given probe is then compared to a reference probe, for example, ADIFAB or ADIFAB2, by ΔR/ΔRreference. This value is an indication of how dissimilar the new probe (derived by mutation of the template) is to the reference. By this method, probes with new and useful characteristics may be identified. Measurements of fluorescence intensities are obtained using standard techniques.
(§2) Mutant probes were screened in 96-well plates by fluorescence response to five fatty acids: arachidonate, linolenate, linoleate, oleate, and palmitate. Each fatty acid was prepared as a complex with BSA by slow addition of 50 mM stocks of fatty acid sodium salts at pH 11 to 600 μM BSA in HEPES buffer. During the formation of complexes, 15 μL aliquots were periodically measured with the reference probe, ADIFAB2, to determine the ΔR value upon excitation at 375 nm and fluorescence emission at 550 and 457 nm using a Fluorolog-3 spectrofluorometer (Jobin Yvon) (Richieri et al, Molecular and Cellular Biochemistry (1999), 192:87-94 & Richieri et al, J. Biol. Chem. (1996), 271:31068-31074). Complexes were prepared such that the final ΔR was approximately 0.4 which correspond to [FFAu] ranging from 100 to 1000 nM depending on FFA type. These complexes buffer or clamp the FFAu levels at fixed values and therefore ensure the accurate comparison of different probes with the same FFAu concentrations. In contrast, addition of FFAu alone (i.e. uncomplexed FFA) introduces considerable uncertainty in comparing different probes because the FFAu level will be affected by binding to the dispensing device, the walls of the multi-well plates and to the probe itself. Thus, the terms “buffer” and “clamp” as used in this particular context herein are taken to mean the ability of a carrier macromolecule to complex with an unbound metabolite so that the unbound metabolite is presented accurately for measurement purposes and is prevented from non-specific binding such as binding to laboratory apparatus.
(§3) Plates were prepared and read in two stages. First, complexes and fatty acid free BSA were diluted to 6 μM BSA in HEPES and added to the 96-well plate at 300 μL per well. A MultiProbe II HT (Perkin Elmer) (an automated liquid handling system) was used to facilitate plate preparation for high throughput screening, but any automated or manual pipetting system will suffice. The background fluorescence was then measured at the same wavelengths as used for ADIFAB2 using a Fluorolog-3 spectrofluorometer with an external Micromax 384 fluorescence plate reader (Jobin Yvon). In the second stage, 30 μL aliquots of the mutant probes were added to multiple wells of the plate, one for each fatty acid and one with fatty acid free BSA only, and the fluorescence intensity at each wavelength was again measured on the plate reader. After subtraction of the background fluorescence, the fluorescence ratio of each well was calculated.
(§4) The fluorescence response was quantitatively compared to ADIFAB2 to search for changes in magnitude and fatty acid profile; for example the response to one fatty acid relative to another. For each probe the ratio differences (AR) between wells with each fatty acid compared to a corresponding well with fatty acid free BSA were recorded. […]

[2] = Probe fluorescence ratio response to arachidonate:BSA complex, relative to ADIFAB2 (ΔR/ΔRAD2); conditions: arachidonate (AA); response relative to ADIFAB2
Procedure: as §1, §2, §3, §4

[3] = Probe fluorescence ratio response to linolenate:BSA complex, relative to ADIFAB2 (ΔR/ΔRAD2); conditions: linolenate (LNA); response relative to ADIFAB2
Procedure: as §1, §2, §3, §4

[4] = Probe fluorescence ratio response to linoleate:BSA complex, relative to ADIFAB2 (ΔR/ΔRAD2); conditions: linoleate (LA); response relative to ADIFAB2
Procedure: as §1, §2, §3, §4

[5] = Probe fluorescence ratio response to oleate:BSA complex, relative to ADIFAB2 (ΔR/ΔRAD2); conditions: oleate (OA); response relative to ADIFAB2
Procedure: as §1, §2, §3, §4

| Molecule | response to palmitic acid [1] | DR/DR AA [2] | DR/DR LNA [3] | DR/DR LA [4] | DR/DR OA [5] | DR/DR PA [1] |
| --- | --- | --- | --- | --- | --- | --- |
| B1 | does not respond to palmitic acid |  |  |  |  |  |
| B2 |  | 0.61 | 0.69 | 0.66 | 0.64 | 0.34 |
| B3 |  | 0.58 | 0.51 | 0.55 | 0.39 | 1.19 |
| B4 |  | 0.51 | 0.63 | 0.66 | 0.59 | 0.32 |
| B5 |  | 0.33 | 0.37 | 0.36 | 0.29 | 0.35 |
| B6 |  | 0.43 | 0.39 | 0.40 | 0.22 | 0.15 |
| B7 |  | 0.42 | 0.29 | 0.28 | 0.20 | 0.18 |
| B8 |  | 1.29 | 1.29 | 1.23 | 2.22 | 1.07 |
| B9 |  | 0.32 | 0.35 | 0.37 | 0.35 | 0.23 |
| B10 |  | 0.63 | 0.70 | 0.74 | 0.67 | 0.43 |
| B11 |  | 1.33 | 1.43 | 1.37 | 1.32 | 1.19 |
| B12 |  | 0.82 | 0.86 | 0.91 | 0.92 | 0.83 |
| B13 |  | 0.68 | 0.74 | 0.77 | 0.74 | 0.46 |
| B14 |  | 0.89 | 0.99 | 0.90 | 0.90 | 0.80 |
| B15 |  | 1.00 | 0.97 | 0.99 | 0.95 | 0.83 |
| B16 |  | 1.20 | 1.28 | 1.24 | 1.21 | 0.91 |
